Among the data in patent publication US20110027284A1 (Novartis, published 2011) are Kd values, retold here.

The target in the assay is T1, recombinant human NiG (human, UniProt Q9NQC3 186-1004).
T1 construct: Recombinant fragment, amine-coupled to a CM5 chip; also called hNiG; human NiG-fragment of NogoA
T1 sequence: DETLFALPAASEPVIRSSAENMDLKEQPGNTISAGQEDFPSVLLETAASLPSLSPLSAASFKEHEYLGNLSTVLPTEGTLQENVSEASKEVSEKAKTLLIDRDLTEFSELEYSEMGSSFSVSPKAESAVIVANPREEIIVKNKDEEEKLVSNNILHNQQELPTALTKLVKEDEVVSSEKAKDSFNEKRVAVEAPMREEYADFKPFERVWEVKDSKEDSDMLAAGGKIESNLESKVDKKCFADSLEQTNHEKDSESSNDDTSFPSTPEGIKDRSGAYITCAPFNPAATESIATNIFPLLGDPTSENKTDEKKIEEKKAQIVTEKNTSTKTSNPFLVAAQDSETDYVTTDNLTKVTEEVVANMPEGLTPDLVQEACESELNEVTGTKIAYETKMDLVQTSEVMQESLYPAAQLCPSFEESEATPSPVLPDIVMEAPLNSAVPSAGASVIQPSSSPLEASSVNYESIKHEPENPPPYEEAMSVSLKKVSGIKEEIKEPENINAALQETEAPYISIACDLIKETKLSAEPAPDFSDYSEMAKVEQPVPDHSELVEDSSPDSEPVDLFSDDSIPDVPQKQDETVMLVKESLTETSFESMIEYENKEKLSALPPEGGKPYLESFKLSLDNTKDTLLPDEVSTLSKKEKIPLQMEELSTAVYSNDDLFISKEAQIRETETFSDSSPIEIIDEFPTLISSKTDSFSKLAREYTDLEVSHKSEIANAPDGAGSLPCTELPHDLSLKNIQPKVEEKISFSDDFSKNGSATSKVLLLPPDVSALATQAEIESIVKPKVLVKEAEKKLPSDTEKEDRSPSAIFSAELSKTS
Description: SPR (BIAcore), recombinant human NiG immobilised on a CM5 chip. Here is the method:
The affinity of the mouse 6A3-IgG1 mAb, 6A3-IgG4 mAb, and of the 6A3 Fab were measured by surface plasmon resonance (SPR) using a BIAcore 2000 optical biosensor (Biacore, Uppsala, Sweden) according to the manufacture's instructions. Recombinant human NIG was covalently immobilized on a flow cell of a CM5 sensor chip using amine-coupling chemistry. Briefly; the carboxymethlyladed dextran matrix was activated by injecting 35 μl of a solution containing 0.025M NHS and 0.1M EDC. […] The deactivation of the remaining NHS-ester group was performed by injection of 35 μl of 1M ethanolamine hydrochloride (pH 8.5). The surface of the sensor chip was regenerated by injecting 5 μl 0.1M HCl. […] After each injection, the sensor chip surface was regenerated with the injection of 10 μl 0.1M HCl without loss of binding activity on the surface. The kinetic constants, ka and kd and the affinity constants KA and KD were evaluated using the BIAevaluations 3.0 software supplied by the manufacturer.
Affinity measurement in BIAcore: The kinetic and the affinity binding constants of the mouse 6A3-IgG1 mAb, 6A3-IgG4 mAb, and of the 6A3 derived monovalent Fab fragment to recombinant human NogoA were measured in real time using surface plasmon resonance (SPR) technology (Biacore). […]
For orientation: Surface plasmon resonance follows binding to a sensor surface in real time, without labels.

B1: 6A3-IgG4 mAb (antibody, V domains shown)
VH: EVQLVESGGGLVQPGGSLRLSCAASGFTFSNYWMSWVRQAPGKGLEWVATIKQDGSQKNYVDSVKGRFTISRDNAKNSLYLRLNSLRAEDTAVYYCATELFDLWGRGSLVTVSS
VL: EIVLTQSPATLSLSPGERATLSCRASQSVSSYLAWYQQKPGQAPRLLIYDASNRATGIPARFSGSGSGTDFTLTISSLEPEDFAVYYCQQRSNWPITFGQGTKLEIKR
notes: Recombinant human IgG4/kappa made in SP2/0 cells; also called 6A3-Ig4; 6A3-Ab
On to B1, for which the Kd (in general, the constant that tells how readily two partners part at equilibrium) was 0.14 nM.

B2: 6A3 Fab monovalent fragment with his-tag (Fab, V domains shown, not shown: a dimerising Fc or GST; small tags and cut ends)
VH: EVQLVESGGGLVQPGGSLRLSCAASGFTFSNYWMSWVRQAPGKGLEWVATIKQDGSQKNYVDSVKGRFTISRDNAKNSLYLRLNSLRAEDTAVYYCATELFDLWGRGSLVTVSS
VL: EIVLTQSPATLSLSPGERATLSCRASQSVSSYLAWYQQKPGQAPRLLIYDASNRATGIPARFSGSGSGTDFTLTISSLEPEDFAVYYCQQRSNWPITFGQGTRLEIK
modifications: A his-tag is present, but its chain and position are not stated, so it is left out.
notes: Made in E. coli; also called 6A3 derived monovalent Fab fragment; copies: 1 + 1
With B2, the equilibrium dissociation constant (Kd) amounted to 1.1 nM.
